Test results from patent US20240343810A1 (published 2024).
One block for each binder: values may come before it.

Key:
[1] = biological target: T1, human ICOS expressed on cells (human, UniProt Q9Y6W8 21-199); experiment: Flow cytometry on CHO-S human ICOS cells, anti-human IgG AF647, N=1
T1 construct: also called CHO-S cells transfected with human ICOS; hICOS
T1 sequence: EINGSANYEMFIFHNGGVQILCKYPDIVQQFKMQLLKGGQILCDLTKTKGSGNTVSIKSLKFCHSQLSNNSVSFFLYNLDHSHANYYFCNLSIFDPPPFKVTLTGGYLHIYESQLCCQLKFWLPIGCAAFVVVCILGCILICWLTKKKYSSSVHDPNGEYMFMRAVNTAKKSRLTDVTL
Protocol: CHO—S cells transfected with either human ICOS or mouse ICOS were resuspended in FACS buffer (PBS+1% w/v BSA+0.1% w/v sodium azide) and transferred to a 96-well V-bottom plate (Greiner) at a density of 1×10⁵ cells per well. mAb and mAb² were titrated in FACS buffer, 1 in 3 dilution across 11 points from a starting working concentration of 400 nM. Plates were centrifuged at 300×g for 3 minutes, supernatant discarded and 50 μL mAb or mAb² solution were added to cells and incubated at 4° C. for 1 hour. Cells were washed with 150 μL of PBS and centrifuged at 300×g for 3 minutes, supernatant was discarded and cell pellet resuspended in 150 μL PBS added. This wash step was repeated twice. Bound mAb or mAb² was detected by addition of 50 μL of anti-human 647 (Jackson ImmunoResearch) diluted to 3 ug/ml in FACS buffer. Cells were incubated for 1 hour at 4° C. in the dark. Cells were washed with 150 μL of PBS and centrifuged at 300 g for 3 minutes, supernatant was discarded and cell pellet resuspended in 150 μL PBS added. This wash step was repeated twice. Cells were fixed with 25 μL 4% v/v paraformaldehyde, incubated for 20 minutes at 4° C., cells were pelleted by centrifugation at 300×g and the supernatant discarded. […] AlexaFluor 647 signal intensity (geometric mean) was measured by flow cytometry using a Beckman Coulter CytoFLEX instrument.

[2] = biological target: T2, human ICOS-mFc (Chimerigen) (human, UniProt Q9Y6W8 21-140); experiment: HTRF, human ICOS-mFc, competitor human B7-H2-Alexa 647, n1
T2 construct: Bought; also called recombinant human ICOS protein; hICOS; not shown: mouse Fc of the bought fusion
T2 sequence: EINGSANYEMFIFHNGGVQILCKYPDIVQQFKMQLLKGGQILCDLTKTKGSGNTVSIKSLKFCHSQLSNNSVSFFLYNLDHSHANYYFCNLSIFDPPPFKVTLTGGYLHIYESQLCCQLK
Protocol: (§1) 5 μl of human ICOS-mFc (Chimerigen) at 20 nM (5 nM final) or 5 ul of mouse ICOS-mFc (Chimerigen) at 4 nM (1 nM final) were added to relevant assay wells. Plate was incubated for 1 hour (hr) at room temperature (RT).
(§2) After incubation, assay was read on Envision plate reader (Perkin Elmer) using a standard HTRF protocol. 620 nm and 665 nm channel values were exported to Microsoft Excel and % Delta-F and % Neutralisation calculations performed. Titration curves and IC50 values [M] were plotted using Graphpad (Prism). IC50 values were calculated by first transforming the data using equation X=Log(X). The transformed data was then fitted using nonlinear regression, using fitting algorithm, log (inhibitor) vs. response—variable slope (four parameters).

[3] = biological target: T3, mouse ICOS-mFc (Chimerigen) (mouse, UniProt Q9WVS0 21-141, limits assumed); experiment: DELFIA ELISA on coated mouse ICOS-mFc, N=3
T3 construct: Bought; also called recombinant mouse ICOS protein; mICOS; not shown: mouse Fc of the bought fusion
T3 sequence: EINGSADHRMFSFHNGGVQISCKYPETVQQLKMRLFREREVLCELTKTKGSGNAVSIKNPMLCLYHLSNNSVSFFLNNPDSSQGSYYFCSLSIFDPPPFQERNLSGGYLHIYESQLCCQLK
Protocol: Recombinant ICOS proteins, human ICOS-mFc or mouse ICOS-mFc (Chimerigen) were diluted in 1×PBS and added to Black Hi-bind plates (Griener) at 1 μg/ml, 50 μl/well. Recombinant PD-L1 proteins, human PD-L1-Flag-His or mouse-His were diluted in 1×PBS and added to Black Hi-bind plates (Griener) at 4 μg/ml, 50 μl/well. The plates were left overnight at 4° C. The next day plates were washed 3× with 300 μl/well of 1×PBS+0.1% Tween and blocked with 200 ul/well of 1×PBS+1% BSA blocking buffer for 1 hr at RT on a plate shaker. Plates were washed 3× with 300 μl/well of 1×PBS+0.1% Tween.
However, human-PD-L1 mAb² antibodies were diluted in 1×PBS+0.1% BSA buffer and diluted 1 in 2 from a starting working concentration of 0.066 μM over an 11 point titration. Titrated antibodies were added to the plates, 50 μl/well and left to incubate for 1 hr at R.T on a plate shaker. Plates were washed 3× with 300 μl/well of 1×PBS+0.1% Tween.
DELFIA® Eu-labelled Anti-human IgG (Perkin-Elmer) was diluted 1:500 in DELFIA Assay buffer (Perkin-Elmer) and added to the assay plate (50 μl/well), left to incubate for 1 hr at RT on a plate shaker. […] After incubation, assay was read on Envision plate reader (Perkin Elmer), Time-resolved fluorescence (TRF) was measured at 615 nm.

[4] = biological target: T2, human ICOS-mFc (Chimerigen); experiment: HTRF, human ICOS-mFc, competitor human B7-H2-Alexa 647, average
Protocol: as §1, §2

[5] = biological target: T4, Biotinylated human ICOS protein (human, UniProt Q9Y6W8 21-140, limits assumed, biotinylated (sites not given)); experiment: SPR ProteOn avidity format, biotinylated human ICOS on NLC chip; calculated on-rate
T4 construct: Captured on the NLC chip in the avidity SPR
T4 sequence: T2 sequence
Protocol: Biotinylated human ICOS protein diluted at 7.5 μg/mL in running buffer (1× HBS-EP+ Buffer Technova, cat. No. H8022) was captured on a NLC sensor chip (Bio-Rad, cat No 1765021). The surface was then blocked using biocytin (Sigma Aldrich, cat No B1758) at 1 mg/mL.
The assay was carried out at 25° C.
The buffer injection (i.e. 0 nM) was used to double reference the sensorgrams. […]

[6] = biological target: T5, human PD-L1 expressed on cells (human, UniProt Q9NZQ7 19-290); experiment: Flow cytometry on CHO human PD-L1 cells
T5 construct: also called CHO-S cells transfected with the cDNA coding for human PD-L1; CHO human PD-L1
T5 sequence (Q9NZQ7 19-290 limits assumed): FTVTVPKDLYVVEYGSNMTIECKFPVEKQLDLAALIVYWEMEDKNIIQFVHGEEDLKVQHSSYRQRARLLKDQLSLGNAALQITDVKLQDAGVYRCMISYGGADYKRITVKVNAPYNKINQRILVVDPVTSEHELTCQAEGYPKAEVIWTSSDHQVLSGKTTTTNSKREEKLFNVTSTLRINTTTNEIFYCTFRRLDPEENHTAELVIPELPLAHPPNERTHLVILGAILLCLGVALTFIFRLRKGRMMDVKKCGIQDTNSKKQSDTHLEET

EC50 [1]: 7.22 nM
IC50 [2]: 0.43 nM
EC50 [3]: 0.338 nM
IC50 [4]: 0.53 nM
kon [5]: 267000 M⁻¹ s⁻¹
binding result [6]: no binding (tested: 198 nM)
B1: STIM003 (antibody, human IgG1, kappa)
heavy: not shown
light: EIVLTQSPGTLSLSPGERATLSCRASQSVSRSYLAWYQQKRGQAPRLLIYGASSRATGIPDRFSGDGSGTDFTLSISRLEPEDFAVYYCHQYDMSPFTFGPGTKVDIKRTVAAPSVFIFPPSDEQLKSGTASVVCLLNNFYPREAKVQWKVDNALQSGNSQESVTEQDSKDSTYSLSSTLTLSKADYEKHKVYACEVTHQGLSSPVTKSFNRGEC
notes: Anti-ICOS monospecific antibody, tested as human IgG1; also called STIM003 monoclonal IgG1 antibody

EC50 [1]: 30.1 nM
IC50 [2]: 0.96 nM
EC50 [3]: 1.73 nM
IC50 [4]: 1.47 nM
kon [5]: 7990 M⁻¹ s⁻¹
binding result [6]: no binding (tested: 198 nM)
B2: STIM001 (antibody, human IgG1, kappa)
heavy: not shown
light: DIVMTQSPLSLPVTPGEPASISCRSSQSLLHSNEYNYLDWYLQKPGQSPQLLIFLGSNRASGVPDRFSGSGSGTDFTLKITRVEAEDVGIYYCMQSLQTPLTFGGGTKVEIKRTVAAPSVFIFPPSDEQLKSGTASVVCLLNNFYPREAKVQWKVDNALQSGNSQESVTEQDSKDSTYSLSSTLTLSKADYEKHKVYACEVTHQGLSSPVTKSFNRGEC
notes: Anti-ICOS monospecific antibody, tested as human IgG1; also called STIM001 monoclonal IgG1 antibody
